Reference: publication PMC9521027 (ACS Omega, 2022)
“And” between values parts separate entries of the source, which are not always exact repeats. Identical values can stand only once. Blank lines part the entries; values can stand above or below the molecule they belong to.

Legend:
URAT1 K393H mutant = target: T1, URAT1 K393H mutant (Homo sapiens, UniProt Q96S37, K393H); assay: 14C-uric acid binding assay with membrane protein; details: 1 μM BM, 1 μM verinurad, 10 μM lesinurad, 20 μM probenecid, 30 min, 25 μM 14C-uric acid
T1 sequence (Q96S37 1-553 K393H): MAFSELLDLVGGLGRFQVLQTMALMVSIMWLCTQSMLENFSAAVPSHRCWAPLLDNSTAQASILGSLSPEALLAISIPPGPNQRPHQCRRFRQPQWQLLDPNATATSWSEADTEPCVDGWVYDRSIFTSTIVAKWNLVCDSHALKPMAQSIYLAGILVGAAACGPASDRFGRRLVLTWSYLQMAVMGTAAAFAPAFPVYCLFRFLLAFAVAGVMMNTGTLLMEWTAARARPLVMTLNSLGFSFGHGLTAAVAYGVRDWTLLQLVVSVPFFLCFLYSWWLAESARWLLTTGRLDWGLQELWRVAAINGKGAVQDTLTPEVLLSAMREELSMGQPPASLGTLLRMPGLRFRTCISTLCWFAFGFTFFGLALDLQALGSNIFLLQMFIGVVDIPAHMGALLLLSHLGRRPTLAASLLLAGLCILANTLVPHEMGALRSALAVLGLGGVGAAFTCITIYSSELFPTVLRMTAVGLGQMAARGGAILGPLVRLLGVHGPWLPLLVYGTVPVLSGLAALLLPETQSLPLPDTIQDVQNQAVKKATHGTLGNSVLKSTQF

URAT1 K393R mutant = target: T2, URAT1 K393R mutant (Homo sapiens, UniProt Q96S37, K393R); assay: 14C-uric acid binding assay with membrane protein; details: 1 μM BM, 1 μM verinurad, 10 μM lesinurad, 20 μM probenecid, 30 min, 25 μM 14C-uric acid
T2 sequence (Q96S37 1-553 K393R): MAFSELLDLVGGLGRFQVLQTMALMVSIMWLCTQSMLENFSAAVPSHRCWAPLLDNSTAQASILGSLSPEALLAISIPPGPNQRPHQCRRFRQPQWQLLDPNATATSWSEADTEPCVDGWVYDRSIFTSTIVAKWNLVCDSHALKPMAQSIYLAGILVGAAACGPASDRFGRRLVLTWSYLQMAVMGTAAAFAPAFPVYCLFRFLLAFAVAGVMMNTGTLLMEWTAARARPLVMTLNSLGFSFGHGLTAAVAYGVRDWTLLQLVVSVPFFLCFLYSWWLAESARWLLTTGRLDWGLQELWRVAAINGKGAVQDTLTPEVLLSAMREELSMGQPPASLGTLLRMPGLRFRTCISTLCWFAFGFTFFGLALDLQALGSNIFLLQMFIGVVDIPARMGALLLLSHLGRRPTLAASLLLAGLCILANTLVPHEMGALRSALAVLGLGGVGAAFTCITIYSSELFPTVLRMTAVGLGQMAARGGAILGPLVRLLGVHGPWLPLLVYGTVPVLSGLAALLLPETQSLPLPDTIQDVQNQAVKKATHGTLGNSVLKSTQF

[1] = substrate: O=c1[nH]c(=O)c2[nH]c(=O)[nH]c2[nH]1; assay: Saturation kinetic experiment of 14C-uric acid uptake; type: cell-based, human; details: 10–200 μM 14C-uric acid, 20 min, HEK293, n = 3

- Effect of inhibitor on 14C-uric acid binding compared with WT group (URAT1 K393H mutant): poorly interfered
- Effect of inhibitor on 14C-uric acid binding compared with WT group (URAT1 K393R mutant): poorly interfered
Molecule: CCc1oc2ccccc2c1C(=O)c1cc(Br)c(O)c(Br)c1 [BM, benzbromarone]

- Effect of inhibitor on 14C-uric acid binding compared with WT group (URAT1 K393H mutant): similar
- Effect of inhibitor on 14C-uric acid binding compared with WT group (URAT1 K393R mutant): similar
Molecule: O=C(O)CSc1nnc(Br)n1-c1ccc(C2CC2)c2ccccc12 [lesinurad]

- Effect of inhibitor on 14C-uric acid binding compared with WT group (URAT1 K393H mutant): similar
- Effect of inhibitor on 14C-uric acid binding compared with WT group (URAT1 K393R mutant): similar
Molecule: CCCN(CCC)S(=O)(=O)c1ccc(C(=O)O)cc1 [probenecid]

B1: hURAT1 K393R mutant (Homo sapiens; K393R) (protein)
chain: MAFSELLDLVGGLGRFQVLQTMALMVSIMWLCTQSMLENFSAAVPSHRCWAPLLDNSTAQASILGSLSPEALLAISIPPGPNQRPHQCRRFRQPQWQLLDPNATATSWSEADTEPCVDGWVYDRSIFTSTIVAKWNLVCDSHALKPMAQSIYLAGILVGAAACGPASDRFGRRLVLTWSYLQMAVMGTAAAFAPAFPVYCLFRFLLAFAVAGVMMNTGTLLMEWTAARARPLVMTLNSLGFSFGHGLTAAVAYGVRDWTLLQLVVSVPFFLCFLYSWWLAESARWLLTTGRLDWGLQELWRVAAINGKGAVQDTLTPEVLLSAMREELSMGQPPASLGTLLRMPGLRFRTCISTLCWFAFGFTFFGLALDLQALGSNIFLLQMFIGVVDIPARMGALLLLSHLGRRPTLAASLLLAGLCILANTLVPHEMGALRSALAVLGLGGVGAAFTCITIYSSELFPTVLRMTAVGLGQMAARGGAILGPLVRLLGVHGPWLPLLVYGTVPVLSGLAALLLPETQSLPLPDTIQDVQNQAVKKATHGTLGNSVLKSTQF
- Km ([1]; other: K393R): 128.11 μM and 101.23 ± 26.11 (ns) μM
- Vmax ([1]; other: K393R): 557.21 ± 89.21(ns)

B2: hURAT1 K393D mutant (Homo sapiens; K393D) (protein)
chain: MAFSELLDLVGGLGRFQVLQTMALMVSIMWLCTQSMLENFSAAVPSHRCWAPLLDNSTAQASILGSLSPEALLAISIPPGPNQRPHQCRRFRQPQWQLLDPNATATSWSEADTEPCVDGWVYDRSIFTSTIVAKWNLVCDSHALKPMAQSIYLAGILVGAAACGPASDRFGRRLVLTWSYLQMAVMGTAAAFAPAFPVYCLFRFLLAFAVAGVMMNTGTLLMEWTAARARPLVMTLNSLGFSFGHGLTAAVAYGVRDWTLLQLVVSVPFFLCFLYSWWLAESARWLLTTGRLDWGLQELWRVAAINGKGAVQDTLTPEVLLSAMREELSMGQPPASLGTLLRMPGLRFRTCISTLCWFAFGFTFFGLALDLQALGSNIFLLQMFIGVVDIPADMGALLLLSHLGRRPTLAASLLLAGLCILANTLVPHEMGALRSALAVLGLGGVGAAFTCITIYSSELFPTVLRMTAVGLGQMAARGGAILGPLVRLLGVHGPWLPLLVYGTVPVLSGLAALLLPETQSLPLPDTIQDVQNQAVKKATHGTLGNSVLKSTQF
- Km ([1]; other: K393D): 165.36 ± 23.41 µM
- Vmax ([1]; other: K393D): 0.000497 µmol/min/mg

B3: hURAT1 K393H mutant (Homo sapiens; K393H) (protein)
chain: MAFSELLDLVGGLGRFQVLQTMALMVSIMWLCTQSMLENFSAAVPSHRCWAPLLDNSTAQASILGSLSPEALLAISIPPGPNQRPHQCRRFRQPQWQLLDPNATATSWSEADTEPCVDGWVYDRSIFTSTIVAKWNLVCDSHALKPMAQSIYLAGILVGAAACGPASDRFGRRLVLTWSYLQMAVMGTAAAFAPAFPVYCLFRFLLAFAVAGVMMNTGTLLMEWTAARARPLVMTLNSLGFSFGHGLTAAVAYGVRDWTLLQLVVSVPFFLCFLYSWWLAESARWLLTTGRLDWGLQELWRVAAINGKGAVQDTLTPEVLLSAMREELSMGQPPASLGTLLRMPGLRFRTCISTLCWFAFGFTFFGLALDLQALGSNIFLLQMFIGVVDIPAHMGALLLLSHLGRRPTLAASLLLAGLCILANTLVPHEMGALRSALAVLGLGGVGAAFTCITIYSSELFPTVLRMTAVGLGQMAARGGAILGPLVRLLGVHGPWLPLLVYGTVPVLSGLAALLLPETQSLPLPDTIQDVQNQAVKKATHGTLGNSVLKSTQF
- Km ([1]; other: K393H): 101.23 μM and 128.11 ± 19.12 (ns) μM
- Vmax ([1]; other: K393H): 0.000447 µmol/min/mg

B4: hURAT1 K393E mutant (Homo sapiens; K393E) (protein)
chain: MAFSELLDLVGGLGRFQVLQTMALMVSIMWLCTQSMLENFSAAVPSHRCWAPLLDNSTAQASILGSLSPEALLAISIPPGPNQRPHQCRRFRQPQWQLLDPNATATSWSEADTEPCVDGWVYDRSIFTSTIVAKWNLVCDSHALKPMAQSIYLAGILVGAAACGPASDRFGRRLVLTWSYLQMAVMGTAAAFAPAFPVYCLFRFLLAFAVAGVMMNTGTLLMEWTAARARPLVMTLNSLGFSFGHGLTAAVAYGVRDWTLLQLVVSVPFFLCFLYSWWLAESARWLLTTGRLDWGLQELWRVAAINGKGAVQDTLTPEVLLSAMREELSMGQPPASLGTLLRMPGLRFRTCISTLCWFAFGFTFFGLALDLQALGSNIFLLQMFIGVVDIPAEMGALLLLSHLGRRPTLAASLLLAGLCILANTLVPHEMGALRSALAVLGLGGVGAAFTCITIYSSELFPTVLRMTAVGLGQMAARGGAILGPLVRLLGVHGPWLPLLVYGTVPVLSGLAALLLPETQSLPLPDTIQDVQNQAVKKATHGTLGNSVLKSTQF
- Km ([1]; other: K393E): 201.23 ± 23.65 µM
- Vmax ([1]; other: K393E): 0.000424 µmol/min/mg

B5: hURAT1 WT (Homo sapiens) (protein)
chain: MAFSELLDLVGGLGRFQVLQTMALMVSIMWLCTQSMLENFSAAVPSHRCWAPLLDNSTAQASILGSLSPEALLAISIPPGPNQRPHQCRRFRQPQWQLLDPNATATSWSEADTEPCVDGWVYDRSIFTSTIVAKWNLVCDSHALKPMAQSIYLAGILVGAAACGPASDRFGRRLVLTWSYLQMAVMGTAAAFAPAFPVYCLFRFLLAFAVAGVMMNTGTLLMEWTAARARPLVMTLNSLGFSFGHGLTAAVAYGVRDWTLLQLVVSVPFFLCFLYSWWLAESARWLLTTGRLDWGLQELWRVAAINGKGAVQDTLTPEVLLSAMREELSMGQPPASLGTLLRMPGLRFRTCISTLCWFAFGFTFFGLALDLQALGSNIFLLQMFIGVVDIPAKMGALLLLSHLGRRPTLAASLLLAGLCILANTLVPHEMGALRSALAVLGLGGVGAAFTCITIYSSELFPTVLRMTAVGLGQMAARGGAILGPLVRLLGVHGPWLPLLVYGTVPVLSGLAALLLPETQSLPLPDTIQDVQNQAVKKATHGTLGNSVLKSTQF
- Km ([1]; other: WT): 106.45 ± 16.45 µM
- Vmax ([1]; other: WT): 0.000654 µmol/min/mg

B6: hURAT1 K393A mutant (Homo sapiens; K393A) (protein)
chain: MAFSELLDLVGGLGRFQVLQTMALMVSIMWLCTQSMLENFSAAVPSHRCWAPLLDNSTAQASILGSLSPEALLAISIPPGPNQRPHQCRRFRQPQWQLLDPNATATSWSEADTEPCVDGWVYDRSIFTSTIVAKWNLVCDSHALKPMAQSIYLAGILVGAAACGPASDRFGRRLVLTWSYLQMAVMGTAAAFAPAFPVYCLFRFLLAFAVAGVMMNTGTLLMEWTAARARPLVMTLNSLGFSFGHGLTAAVAYGVRDWTLLQLVVSVPFFLCFLYSWWLAESARWLLTTGRLDWGLQELWRVAAINGKGAVQDTLTPEVLLSAMREELSMGQPPASLGTLLRMPGLRFRTCISTLCWFAFGFTFFGLALDLQALGSNIFLLQMFIGVVDIPAAMGALLLLSHLGRRPTLAASLLLAGLCILANTLVPHEMGALRSALAVLGLGGVGAAFTCITIYSSELFPTVLRMTAVGLGQMAARGGAILGPLVRLLGVHGPWLPLLVYGTVPVLSGLAALLLPETQSLPLPDTIQDVQNQAVKKATHGTLGNSVLKSTQF
- Km ([1]; other: K393A): 172.12 ± 27.12 µM
- Vmax ([1]; other: K393A): 0.000464 µmol/min/mg
